Measurements as given in patent US8986655.

Molecular target: prostate-specific membrane antigen (PSMA), dimeric isoform (UniProt Q04609)
Experiment: phage-displayed ELISA on 1 µg/mL PSMA dimer, HRP activity

Sequence of prostate-specific membrane antigen (PSMA), dimeric isoform (Q04609 44-750): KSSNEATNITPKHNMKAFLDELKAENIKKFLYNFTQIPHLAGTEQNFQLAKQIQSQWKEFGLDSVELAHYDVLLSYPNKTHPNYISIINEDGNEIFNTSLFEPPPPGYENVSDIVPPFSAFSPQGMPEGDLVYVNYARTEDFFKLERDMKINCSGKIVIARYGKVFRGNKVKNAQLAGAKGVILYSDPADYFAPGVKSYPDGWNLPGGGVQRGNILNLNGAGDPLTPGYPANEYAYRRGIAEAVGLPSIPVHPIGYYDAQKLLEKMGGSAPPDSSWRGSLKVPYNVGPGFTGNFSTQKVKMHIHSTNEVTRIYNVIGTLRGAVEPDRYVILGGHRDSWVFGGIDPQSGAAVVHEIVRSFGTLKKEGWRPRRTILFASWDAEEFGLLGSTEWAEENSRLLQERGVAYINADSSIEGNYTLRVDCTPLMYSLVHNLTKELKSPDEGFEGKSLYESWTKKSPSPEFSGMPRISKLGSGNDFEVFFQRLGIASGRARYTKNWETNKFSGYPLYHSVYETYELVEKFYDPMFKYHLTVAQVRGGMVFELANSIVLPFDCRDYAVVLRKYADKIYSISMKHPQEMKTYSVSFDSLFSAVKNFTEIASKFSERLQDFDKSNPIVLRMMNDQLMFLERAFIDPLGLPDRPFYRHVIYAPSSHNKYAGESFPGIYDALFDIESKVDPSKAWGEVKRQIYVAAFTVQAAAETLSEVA

Substance “phage-displayed peptide 1, CALCEFLG [SEQ ID NO: 1]” has an EC50 (read off the curve) of 0.2 nM.
